From PMC5701055 (Nature Communications, 2017)

Molecular target: the molecule itself
Test: crystal structure

B1: soluble ectodomain of human aminopeptidase N (hAPN), residues 66–967, WT (receptor)
chain: DQSKAWNRYRLPNTLKPDSYRVTLRPYLTPNDRGLYVFKGSSTVRFTCKEATDVIIIHSKKLNYTLSQGHRVVLRGVGGSQPPDIDKTELVEPTEYLVVHLKGSLVKDSQYEMDSEFEGELADDLAGFYRSEYMEGNVRKVVATTQMQAADARKSFPCFDEPAMKAEFNITLIHPKDLTALSNMLPKGPSTPLPEDPNWNVTEFHTTPKMSTYLLAFIVSEFDYVEKQASNGVLIRIWARPSAIAAGHGDYALNVTGPILNFFAGHYDTPYPLPKSDQIGLPDFNAGAMENWGLVTYRENSLLFDPLSSSSSNKERVVTVIAHELAHQWFGNLVTIEWWNDLWLNEGFASYVEYLGADYAEPTWNLKDLMVLNDVYRVMAVDALASSHPLSTPASEINTPAQISELFDAISYSKGASVLRMLSSFLSEDVFKQGLASYLHTFAYQNTIYLNLWDHLQEAVNNRSIQLPTTVRDIMNRWTLQMGFPVITVDTSTGTLSQEHFLLDPDSNVTRPSEFNYVWIVPITSIRDGRQQQDYWLIDVRAQNDLFSTSGNEWVLLNLNVTGYYRVNYDEENWRKIQTQLQRDHSAIPVINRAQIINDAFNLASAHKVPVTLALNNTLFLIEERQYMPWEAALSSLSYFKLMFDRSEVYGPMKNYLKKQVTPLFIHFRNNTNNWREIPENLMDQYSEVNAISTACSNGVPECEEMVSGLFKQWMENPNNNPIHPNLRSTVYCNAIAQGGEEEWDFAWEQFRNATLVNEADKLRAALACSKELWILNRYLSYTLNPDLIRKQDATSTIISITNNVIGQGLVWDFVQSNWKKLFNDYGGGSFSFSNLIQAVTRRFSTEYELQQLEQFKKDNEETGFGSGTRALEQALEKTKANIKWVKENKEVVLQWFTENSK
  binding result: binds
